{"source": "paper PMC7555306", "about": "“Domain Organization in Plant Blue-Light Receptor Phototropin2 of Arabidopsis thaliana Studied by Small-Angle X-ray Scattering” (International Journal of Molecular Sciences, 2020)", "proteins": {"B1": {"name": "Asp720Asn-mutated full-length phototropin2 of Arabidopsis thaliana (natural protein)", "chain": "MERPRAPPSPLNDAESLSERRSLEIFNPSSGKETHGSTSSSSKPPLDGNNKGSSSKWMEFQDSAKITERTAEWGLSAVKPDSGDDGISFKLSSEVERSKNMSRRSSEESTSSESGAFPRVSQELKTALSTLQQTFVVSDATQPHCPIVYASSGFFTMTGYSSKEIVGRNCRFLQGPDTDKNEVAKIRDCVKNGKSYCGRLLNYKKDGTPFWNLLTVTPIKDDQGNTIKFIGMQVEVSKYTEGVNDKALRPNGLSKSLIRYDARQKEKALDSITEVVQTIRHRKSQVQESVSNDTMVKPDSSTTPTPGRQTRQSDEASKSFRTPGRVSTPTGSKLKSSNNRHEDLLRMEPEELMLSTEVIGQRDSWDLSDRERDIRQGIDLATTLERIEKNFVISDPRLPDNPIIFASDSFLELTEYSREEILGRNCRFLQGPETDQATVQKIRDAIRDQREITVQLINYTKSGKKFWNLFHLQPMRDQKGELQYFIGVQLDGSDHVEPLQNRLSERTEMQSSKLVKATATNVDEAVRELPDANTRPEDLWAAHSKPVYPLPHNKESTSWKAIKKIQASGETVGLHHFKPIKPLGSGDTGSVHLVELKGTGELYAMKAMEKTMMLNRNKAHRACIEREIISLLDHPFLPTLYASFQTSTHVCLITDFCPGGELFALLDRQPMKILTEDSARFYAAEVVIGLEYLHCLGIVYRDLKPENILLKKDGHIVLANFDLSFMTTCTPQLIIPAAPSKRRRSKSQPLPTFVAEPSTQSNSFVGTEEYIAPEIITGAGHTSAIDWWALGILLYEMLYGRTPFRGKNRQKTFANILHKDLTFPSSIPVSLVGRQLINTLLNRDPSSRLGSKGGANEIKQHAFFRGINWPLIRGMSPPPLDAPLSIIEKDPNAKDIKWEDDGVLVNSTDLDIDLF", "notes": "phototropin2 (phot2), Arabidopsis thaliana, full length, residues 1-915, with Asp720Asn; also called phot2; full-length phot2"}, "B2": {"name": "LOV1 fragment of Arabidopsis thaliana phototropin2 (domain or fragment, UniProt P93025 117-265, looked up)", "chain": "FPRVSQELKTALSTLQQTFVVSDATQPHCPIVYASSGFFTMTGYSSKEIVGRNCRFLQGPDTDKNEVAKIRDCVKNGKSYCGRLLNYKKDGTPFWNLLTVTPIKDDQGNTIKFIGMQVEVSKYTEGVNDKALRPNGLSKSLIRYDARQK", "notes": "phototropin2 (phot2), Arabidopsis thaliana, LOV1 fragment, residues 117-265 of the 915-residue protein; also called phot2 LOV1"}}, "biological_target": "the molecule itself", "test": "SAXS; in solution at 293 K, at least three specimen concentrations, extrapolated to infinite dilution; in the dark (D450), under blue-light irradiation (S390) and after dark reversion; apparent molecular weight from I(S=0,C=0) against hen egg-white lysozyme or the buffer's scattering", "data": [{"protein": "B1", "values": [{"measurement": "stoichiometry N", "value": 2}]}, {"protein": "B2", "values": [{"measurement": "stoichiometry N", "value": 2}]}]}
